Experimental findings from patent US20250215070A1 are described below.

The term Kd denotes the constant that tells how readily two partners part at equilibrium. In general, EC50 refers to the concentration that produces a half-maximal response. A higher EC50 goes with a less potent agent.

To fix the notation:
B1: CTHRC1S-M11 (antibody, V domains shown)
VH: QVTLRESGPALVKPTQTLTLTCTFSGFSLSTNVMCVSWIRQPPGKALEWLALIDWDDDKYYSTSLKTRLTISKDTSKNQVVLTMTNMDPVDTATYYCARTGITGTHYYYYYMDVWGKGTTVTVSS
VL: AIQMTQSPSSLSASVGDRVTITCRASQGIRNDLGWYQQKPGKAPKLLIYAASSLQSGVPSRFSGSGFGTDFTLTISSLQPEDFATYYCLQDYNYPWTFGQGTKVEIK
B2: CTHRC1S-M5 (antibody, V domains shown)
VH: EVQLVESGGGLVTPGGSLRLSCAASGFTFSTYSMNWVRQAPGKGLEWVSSISGSSGHIYYADSVRGRFTISRDNAKNSLYLQMNSLRAEDTAVYYCASMHYYYYLDVWGKGTTVTVSS
VL: QAVVTQESALTTSPGETVTLTCRSSTGTVTTSNYVTWVQEKPDHLFTGLIGATNNRAPGVPARFSGSLIGDKAALTITGAQTEDEAIYFCALWYSNHWVFGGGTKLTVL
B3: CTHRC1S-M14 (antibody, V domains shown)
VH: EVQVVESGGGLVQPGGSLRLSCAASRFTFSNYWMSWVRQAPGRGLEWVANIKQDGSEKYYVDSVKGRFTISRDNAKNSLYLQMNSLRAEDTAVYYCAREGGYCSDTRCFFYMDVWGKGTTVTVSS
VL: DIQMTQSPSTLSASVGDRVTITCRASQSIISWLAWYQQKPGKAPKLLIYKASSLEGGVPSRFSGSGSGTDFTLTISSLQPDDFATYYCQQYNSYSRTFGQGTTVEIK

human Collagen triple helix repeat-containing protein 1 (CTHRC1) (human), sequence (Q96CG8 31-243): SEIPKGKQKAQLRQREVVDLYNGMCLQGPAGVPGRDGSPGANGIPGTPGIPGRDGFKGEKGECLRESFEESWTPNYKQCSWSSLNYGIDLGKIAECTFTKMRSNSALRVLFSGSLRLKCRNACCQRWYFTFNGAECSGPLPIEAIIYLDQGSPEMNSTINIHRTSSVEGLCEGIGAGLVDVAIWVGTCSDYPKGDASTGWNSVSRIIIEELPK

The first assay addresses human Collagen triple helix repeat-containing protein 1 (CTHRC1) (human) (UniProt Q96CG8). Put plainly: bio-layer interferometry; CTHRC1 species not stated. A general note: In BLI a coated tip is dipped into the sample, and binding shifts an interference pattern.
B1 returned a Kd of 2 nM. This lies in the single-digit nanomolar range.
B2 gave a Kd of 3.18 nM.
Molecule B3 yielded a Kd of less than 0.001 nM.

The target is the same in another assay. Put plainly: binding EC50 on huCTHRC1; method not stated (ELISA named in text). (In general: An ELISA detects its analyte on a solid surface through an enzyme-linked reagent.)
For the molecule B1, the EC50 turned out to be 9.76 nM. This lies in the single-digit nanomolar range.
Same read-out and setting: the result for B2 reads 1.85 nM.
B3: the EC50 stood at 0.05 nM.
